Results from patent US20250353921A1 (ASTRIA THERAPEUTICS, published 2025).

What was measured:
[1] = molecular target: T1, human OX40 (TNFRSF4, CD134) on cells (human, UniProt P43489 29-277); experiment: cell-based or functional assay
T1 sequence: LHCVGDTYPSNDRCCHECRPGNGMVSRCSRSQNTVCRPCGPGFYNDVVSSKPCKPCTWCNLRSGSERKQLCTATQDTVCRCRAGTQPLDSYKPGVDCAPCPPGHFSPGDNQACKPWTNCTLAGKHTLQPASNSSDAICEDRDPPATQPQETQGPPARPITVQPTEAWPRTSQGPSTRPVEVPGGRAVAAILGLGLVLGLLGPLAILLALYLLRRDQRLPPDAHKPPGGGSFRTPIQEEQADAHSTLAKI

[2] = molecular target: T1, human OX40 (TNFRSF4, CD134) on cells; experiment: cell-based or functional assay; remark: listed apart in the source
[3] = molecular target: T1, human OX40 (TNFRSF4, CD134) on cells; experiment: flow cytometry on Jurkat-NFκB (OX40) cells, detection with anti-human IgG Fc-AF647
[4] = molecular target: T2, Human CD32b, Sino Biological 10259-H08H (human, UniProt P31994 43-217); experiment: SPR Biacore 8K+, receptor captured by anti-His, antibody as analyte
T2 construct: also called FcγRIIb
T2 sequence (looked up): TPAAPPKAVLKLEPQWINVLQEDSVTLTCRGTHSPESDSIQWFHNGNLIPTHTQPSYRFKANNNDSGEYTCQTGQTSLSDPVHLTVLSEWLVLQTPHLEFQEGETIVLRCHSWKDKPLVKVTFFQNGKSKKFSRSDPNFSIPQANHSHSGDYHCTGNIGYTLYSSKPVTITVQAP
Procedure: (§1) Measurements were performed on a Biacore 8K+ instrument (Cytiva Life Sciences) using the Biacore 8K+ Control Software and analyzed with the Biacore Insight Evaluation Software (v3.0). […] After each binding event, baseline levels were restored using a regeneration solution on both flow-paths. HBS-EP+pH 7.4 solution were used as running buffer. Data was analyzed using the MCK evaluation method of the Biacore Insight Evaluation Software and kinetic parameters were determined using the 1:1 binding and steady-state affinity methods.
(§2) Each measurement is the mean of three identical replicate conditions.

[5] = molecular target: T3, Human CD16a (F176V), Sino Biological 10389-H08H1 (human, UniProt P08637 17-208); experiment: as above
T3 construct: also called FcγRIIIa176V
T3 sequence (P08637 17-208 F176V limits assumed): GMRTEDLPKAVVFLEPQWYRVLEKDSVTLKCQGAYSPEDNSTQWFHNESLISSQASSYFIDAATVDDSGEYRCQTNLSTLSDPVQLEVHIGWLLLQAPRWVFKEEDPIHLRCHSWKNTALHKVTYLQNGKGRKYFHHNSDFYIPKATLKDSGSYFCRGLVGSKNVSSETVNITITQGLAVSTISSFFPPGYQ
Procedure: as §1, §2

[6] = molecular target: T4, Human CD16a (176F), Sino Biological 10389-H08H (human, UniProt P08637 17-208); experiment: as above
T4 construct: also called FcγRIIIa176F
T4 sequence (P08637 17-208 limits assumed): as the sequence (P08637 17-208 F176V limits assumed) above, with V160F counted along it
Procedure: as §1, §2

[7] = molecular target: Human CD64 (FcγRI), Sino Biological 10256-H08H (human, UniProt P12314 16-288); experiment: as above
Sequence of Human CD64 (FcγRI), Sino Biological 10256-H08H (P12314 16-288 limits assumed): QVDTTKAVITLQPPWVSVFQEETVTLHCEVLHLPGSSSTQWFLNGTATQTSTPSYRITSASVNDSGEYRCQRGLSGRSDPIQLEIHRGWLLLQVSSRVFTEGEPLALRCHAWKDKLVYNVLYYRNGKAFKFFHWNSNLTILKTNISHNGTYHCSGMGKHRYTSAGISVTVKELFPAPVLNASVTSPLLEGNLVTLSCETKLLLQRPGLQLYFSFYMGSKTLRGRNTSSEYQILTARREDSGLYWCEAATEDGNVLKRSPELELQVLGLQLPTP
Procedure: as §1, §2

[8] = molecular target: T5, Human CD16b (NA2 allotype), Sino Biological 11046-H08H (human, UniProt O75015 17-200); experiment: as above
T5 construct: also called FcγRIIIb
T5 sequence (O75015 17-200 N65S limits assumed): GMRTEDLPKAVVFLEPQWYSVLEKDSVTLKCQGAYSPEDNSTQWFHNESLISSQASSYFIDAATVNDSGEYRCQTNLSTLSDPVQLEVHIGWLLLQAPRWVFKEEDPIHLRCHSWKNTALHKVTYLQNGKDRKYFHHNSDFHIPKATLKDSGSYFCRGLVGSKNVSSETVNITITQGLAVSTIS
Procedure: as §1, §2

[9] = molecular target: T6, Human CD32a (167 Arg), Sino Biological 10374-H08H (human, UniProt P12318 34-218); experiment: as above
T6 construct: also called FcγRIIa167R
T6 sequence (looked up): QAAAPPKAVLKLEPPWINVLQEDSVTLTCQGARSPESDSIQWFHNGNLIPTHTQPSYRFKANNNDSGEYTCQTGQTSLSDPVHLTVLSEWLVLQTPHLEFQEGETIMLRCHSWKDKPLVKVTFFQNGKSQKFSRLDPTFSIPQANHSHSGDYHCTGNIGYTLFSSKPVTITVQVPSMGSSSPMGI
Procedure: as §1, §2

[10] = molecular target: T7, Human CD32a (167 His), Sino Biological 10374-H08H1 (human, UniProt P12318 34-218); experiment: as above
T7 construct: also called FcγRIIa167H
T7 sequence (looked up): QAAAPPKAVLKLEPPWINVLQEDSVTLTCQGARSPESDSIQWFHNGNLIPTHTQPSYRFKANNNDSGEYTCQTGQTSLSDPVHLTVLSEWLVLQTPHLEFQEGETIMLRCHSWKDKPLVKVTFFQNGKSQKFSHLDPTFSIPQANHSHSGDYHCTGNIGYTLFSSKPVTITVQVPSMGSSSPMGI
Procedure: as §1, §2

human OX40-ECD-his = molecular target: T8, human OX40-ECD-his (human, UniProt P43489 29-214); experiment: ELISA, scFv supernatant on coated human OX40-ECD-his, anti-c-myc detection
T8 construct: whole entry named
T8 sequence: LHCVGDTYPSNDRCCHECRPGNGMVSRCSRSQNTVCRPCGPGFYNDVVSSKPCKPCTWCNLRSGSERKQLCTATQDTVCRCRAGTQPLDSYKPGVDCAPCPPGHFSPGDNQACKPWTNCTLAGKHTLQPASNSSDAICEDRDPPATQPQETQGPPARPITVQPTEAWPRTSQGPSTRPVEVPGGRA
Procedure: The binding of scFv clones was assessed by ELISA. Individual E. coli colonies from the second round of selection were picked and grown in 2YT ampicillin medium (96-well deep well plates). ScFv expression was induced by addition of 1 mM of IPTG and incubation ON at 30° C. and 250 RPM. Cells were centrifuged and culture supernatant were used for screening. RIA/EIA plates were coated with either 200 ng/well of human OX40-ECD-his or cynomolgus OX40-ECD-Fc. In order to discriminate potential antibodies selected against the Fc fragment, a plate was also coated with an irrelevant Fc fused antigen. The plates were then blocked with PBS supplemented with 3% Bovine Serum Albumin (BSA). 80 μL of bacteria culture supernatants were then mixed with 20 μl of 3% BSA and added to the blocked plates for 1 hr at room temperature. Bound scFvs were detected using a biotinylated chicken anti-c-myc antibody diluted 1:5000 in PBS-0.3% BSA incubated for 1 hr at RT, followed by staining with the Pierce High Sensitivity Streptavidin-HRP reagent diluted 1:8000 in PBS-0.3% BSA for 30 min at RT. Plates were extensively washed using PBS supplemented with 0.05% Tween 20 between each incubation step. […] Clones that bound specifically to both human and cynomolgus OX40 but not to irrelevant antigen-Fc fusion protein were DNA sequenced.

B1: OX40L (recombinant human OX40 ligand) (ligand, UniProt P23510 51-183, looked up)
chain: QVSHRYPRIQSIKVQFTEYKKEKGFILTSQKEDEIMKVQNNSVIINCDGFYLISLKGYFSQEVNISLHYQKDEEPLFQLKKVRSVNSLMVASLTYKDKVYLNVTTDNTSLDDFHVNGGELILIHQNPGEFCVL
average proliferation index (Av), coated T cell agonism assay [1]: 5.61
luminescence, Jurkat-NFκB-OX40 agonism assay [2]: 8 fold

B2: OX40L (P865) (Fc fusion, human, UniProt P23510 51-183, looked up)
OX40L-Fc chain: QVSHRYPRIQSIKVQFTEYKKEKGFILTSQKEDEIMKVQNNSVIINCDGFYLISLKGYFSQEVNISLHYQKDEEPLFQLKKVRSVNSLMVASLTYKDKVYLNVTTDNTSLDDFHVNGGELILIHQNPGEFCVL
notes: the sheet prints OX40L (P865) in the legend box and OX40L (P685) beside the curve; also called OX40L-Fc; OX40L (P685)
EC50 (read off the curve) [3]: ~0.2 µg/mL

B3: MAB11 (antibody, human IgG1, kappa)
heavy: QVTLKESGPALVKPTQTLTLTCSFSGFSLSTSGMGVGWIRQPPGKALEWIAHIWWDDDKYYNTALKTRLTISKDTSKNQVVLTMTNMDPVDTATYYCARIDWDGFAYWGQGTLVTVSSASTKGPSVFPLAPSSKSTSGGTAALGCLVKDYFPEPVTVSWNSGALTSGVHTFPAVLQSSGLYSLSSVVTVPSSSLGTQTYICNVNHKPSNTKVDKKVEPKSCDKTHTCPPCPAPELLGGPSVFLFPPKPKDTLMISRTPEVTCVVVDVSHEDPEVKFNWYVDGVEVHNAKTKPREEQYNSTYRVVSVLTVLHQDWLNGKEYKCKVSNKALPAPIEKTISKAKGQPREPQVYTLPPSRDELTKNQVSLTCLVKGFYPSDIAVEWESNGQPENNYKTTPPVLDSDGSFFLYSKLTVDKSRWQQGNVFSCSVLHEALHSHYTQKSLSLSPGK
light: EIVLTQSPATLSLSPGERATLSCRASSSVSYMHWYQQKPGQAPRPWIYATSNRATGIPARFSGSGSGTDYTLTISSLEPEDFAVYYCQQFGAWPWTFGQGTKVEIKRTVAAPSVFIFPPSDEQLKSGTASVVCLLNNFYPREAKVQWKVDNALQSGNSQESVTEQDSKDSTYSLSSTLTLSKADYEKHKVYACEVTHQGLSSPVTKSFNRGEC
notes: IgG1 with M428L and N434S; also called MAB1 Heavy Chain + LS
Kd [4]: 9880 nM
Kd [5]: 221 nM
Kd [6]: 246 nM
Kd [7]: 6.3 nM
Kd [8]: 2740 nM
Kd [9]: 5430 nM
Kd [10]: 3380 nM

B4: MAB8 scFv clone (scFv)
scFv: QVTLKESGPALVKPTQTLTLTCSFSGFSLSTSGMGVGWIRQPPGKALEWIAHIWWDDDKYYNTALKTRLTISKDTSKNQVVLTMTNMDPVDTATYYCARIDWDGFAYWGQGTLVTVSSGGGGSGGGGSGGGGSEIVLTQSPATLSLSPGERATLSCRASSSVSYMHWYQQKPGQAPRPWIYATSNRATGIPARFSGSGSGTDYTLTISSLEPEDFAVYYCQQTVAWPWTFGQGTKVEIK
binding result (human OX40-ECD-his): binds

B5: MAB7 scFv clone (scFv)
scFv: QVTLKESGPALVKPTQTLTLTCSFSGFSLSTSGMGVGWIRQPPGKALEWIAHIWWDDDKYYNTALKTRLTISKDTSKNQVVLTMTNMDPVDTATYYCARIDWDGFAYWGQGTLVTVSSGGGGSGGGGSGGGGSEIVLTQSPATLSLSPGERATLSCRASSSVSYMHWYQQKPGQAPRPWIYATSNRATGIPARFSGSGSGTDYTLTISSLEPEDFAVYYCQQMEFTPWTFGQGTKVEIK
binding result (human OX40-ECD-his): binds

B6: MAB2 scFv clone (scFv)
scFv: QVTLKESGPALVKPTQTLTLTCSFSGFSLSTSGMGVGWIRQPPGKALEWIAHIWWDDDKYYNTALKTRLTISKDTSKNQVVLTMTNMDPVDTATYYCARIDWDGFAYWGQGTLVTVSSGGGGSGGGGSGGGGSEIVLTQSPATLSLSPGERATLSCRASSSVSYMHWYQQKPGQAPRPWIYATSNRATGIPARFSGSGSGTDYTLTISSLEPEDFAVYYCQQFGDPPWTFGQGTKVEIK
binding result (human OX40-ECD-his): binds

B7: MAB5 scFv clone (scFv)
scFv: QVTLKESGPALVKPTQTLTLTCSFSGFSLSTSGMGVGWIRQPPGKALEWIAHIWWDDDKYYNTALKTRLTISKDTSKNQVVLTMTNMDPVDTATYYCARIDWDGFAYWGQGTLVTVSSGGGGSGGGGSGGGGSEIVLTQSPATLSLSPGERATLSCRASSSVSYMHWYQQKPGQAPRPWIYATSNRATGIPARFSGSGSGTDYTLTISSLEPEDFAVYYCQQTLHYPWTFGQGTKVEIK
binding result (human OX40-ECD-his): binds

B8: MAB1 scFv clone (scFv)
scFv: QVTLKESGPALVKPTQTLTLTCSFSGFSLSTSGMGVGWIRQPPGKALEWIAHIWWDDDKYYNTALKTRLTISKDTSKNQVVLTMTNMDPVDTATYYCARIDWDGFAYWGQGTLVTVSSGGGGSGGGGSGGGGSEIVLTQSPATLSLSPGERATLSCRASSSVSYMHWYQQKPGQAPRPWIYATSNRATGIPARFSGSGSGTDYTLTISSLEPEDFAVYYCQQFGAWPWTFGQGTKVEIK
notes: Phage library scFv in bacterial culture supernatant
binding result (human OX40-ECD-his): binds

B9: MAB9 scFv clone (scFv)
scFv: QVTLKESGPALVKPTQTLTLTCSFSGFSLSTSGMGVGWIRQPPGKALEWIAHIWWDDDKYYNTALKTRLTISKDTSKNQVVLTMTNMDPVDTATYYCARIDWDGFAYWGQGTLVTVSSGGGGSGGGGSGGGGSEIVLTQSPATLSLSPGERATLSCRASSSVSYMHWYQQKPGQAPRPWIYATSNRATGIPARFSGSGSGTDYTLTISSLEPEDFAVYYCQAASSSSLEFGQGTKVEIK
binding result (human OX40-ECD-his): binds

B10: MAB3 scFv clone (scFv)
scFv: QVTLKESGPALVKPTQTLTLTCSFSGFSLSTSGMGVGWIRQPPGKALEWIAHIWWDDDKYYNTALKTRLTISKDTSKNQVVLTMTNMDPVDTATYYCARIDWDGFAYWGQGTLVTVSSGGGGSGGGGSGGGGSEIVLTQSPATLSLSPGERATLSCRASSSVSYMHWYQQKPGQAPRPWIYATSNRATGIPARFSGSGSGTDYTLTISSLEPEDFAVYYCQQTIEWPWTFGQGTKVEIK
binding result (human OX40-ECD-his): binds

B11: MAB4 scFv clone (scFv)
scFv: QVTLKESGPALVKPTQTLTLTCSFSGFSLSTSGMGVGWIRQPPGKALEWIAHIWWDDDKYYNTALKTRLTISKDTSKNQVVLTMTNMDPVDTATYYCARIDWDGFAYWGQGTLVTVSSGGGGSGGGGSGGGGSEIVLTQSPATLSLSPGERATLSCRASSSVSYMHWYQQKPGQAPRPWIYATSNRATGIPARFSGSGSGTDYTLTISSLEPEDFAVYYCQQTLLFPWTFGQGTKVEIK
binding result (human OX40-ECD-his): binds

B12: MAB6 scFv clone (scFv)
scFv: QVTLKESGPALVKPTQTLTLTCSFSGFSLSTSGMGVGWIRQPPGKALEWIAHIWWDDDKYYNTALKTRLTISKDTSKNQVVLTMTNMDPVDTATYYCARIDWDGFAYWGQGTLVTVSSGGGGSGGGGSGGGGSEIVLTQSPATLSLSPGERATLSCRASSSVSYMHWYQQKPGQAPRPWIYATSNRATGIPARFSGSGSGTDYTLTISSLEPEDFAVYYCQQWETWPWTFGQGTKVEIK
binding result (human OX40-ECD-his): binds
